Source: patent US6943243

Target: TraR (Agrobacterium strain A348)
Assay: cell-based or functional assay

Row | Substance | fold +/- (induction of GUS by C8-AHL, TraR + TraM co-transfected) | fold +/- (induction of GUS by C8-AHL, TraR + TraS co-transfected)
1 | TraM | 0.8 fold | 
2 | TraS |  | 6.6 fold
